The source of these data is the supplement of paper PMC9170038.

This data set has as its system MS2 coat protein. The data set can be described thus: apparent KD of MS2 coat protein; designed switch direction (-1 OFF switch, 1 ON switch): -1; higher = weaker reporter binding. The procedure, abridged: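 On Illumina chips, designed RNA switches with common flanks were made by stalled E. coli RNA polymerase. Titrations with SNAP-549-labelled MS2 coat protein, doubling from 0.7 or 1.5 nM to 3 µM, were done with no input, with 200 uM small-molecule ligand, or with an oligonucleotide input. Apparent KD is the median per design over clusters, from curve fits of normalised cluster fluorescence.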

The mark [1] stands for this setting: Eterna round: R95, input ligand: FMN 200 uM.
Where [2] appears, read: Eterna round: R95, input ligand: microRNA oligo, concentration not stated.
The mark [3] stands for this setting: Eterna round: R95, input ligand: none.

As to “AGGAAGCAAGGAUAUACGAGGAGAAGGUGUAGAUUUAAAGGACAUGAGGAUCACCCAUGUAGAAGGUGCGAGAA [JR_Exclu2_Sub047] (puzzle: Exclusion 2)”, the “apparent KD of MS2 coat protein” value is, setting by setting: under setting [1], 62.7 nM; under setting [2], 31.8 nM; under setting [3], 41.4 nM.

Regarding “AGGAAGCAAGGAUAUACGAGGAGAAGGUGUCGAUUUAAAGGACAUGAGGAUCACCCAUGUAGAAGGUGCGAGAA [JR_Exclu2_Sub048] (puzzle: Exclusion 2)”, the “apparent KD of MS2 coat protein” value was found to be 110 nM under setting [1], 83.6 nM under setting [2] and 95.8 nM under setting [3].

Turning to “AGGACAUCAGGCGGCAUGUACAUGAGGAUCACCCAUGUCCUAGAAAGCUGUAUGCUCGUCUUAGGCCCAACCUCGCU [Eternabot (Original) Solution 13] (Eterna round: R97, puzzle: Sensor, turn-off variant 1)”, the “apparent KD of MS2 coat protein” value by setting is: (input ligand: FMN 200 uM) 65.1 nM; (input ligand: none) 61 nM.

Regarding “AGGAUGUGAGGAUAUCCAUCCCGCGAAUACGGGUAAUAAAUGGAGAAGGCACAUGAGGAUCACCCAUGUGAUGA [Ceersois] (Eterna round: R97, puzzle: Exclusion 4)”, the “apparent KD of MS2 coat protein” value (input ligand: FMN 200 uM) was 262 nM and the “apparent KD of MS2 coat protein” value (input ligand: none) was found to be 54.1 nM.

On to “AGGAUGUUAGGAUAUCGGAGAUGCGGGAGGAGGUGGAGGUACGAGAAGGAACAUGAGGAUCACCCAUGUGGAAG [JR_Exclu4_Sub045] (puzzle: Exclusion 4)”, for which, under setting [2], the “apparent KD of MS2 coat protein” value came to 18.4 nM.

Take “AGGAUGUUAGGAUAUCGGAGAUGCUGGAGGAGGUGGAUUUACGAGAAGGAACAUGAGGAUCACCCAUGUGGAAG [JR_Exclu4_Sub046] (puzzle: Exclusion 4)”: the “apparent KD of MS2 coat protein” value by setting is: under setting [1], 35.1 nM; under setting [2], 25.8 nM; under setting [3], 27.2 nM.

Regarding “AGGCGGAAAGUAAGGAUAUCUUGACCAAAGGGUUGAGAGAAGGUACAUGAGGAUCACCCAUGUGGUGACCGCCA [Morphing Claw (Vienna)] (Eterna round: R97, puzzle: Brourd's mod of Exclusion 4)”, the “apparent KD of MS2 coat protein” value (input ligand: FMN 200 uM) was 228 nM and the “apparent KD of MS2 coat protein” value (input ligand: none) was determined as 685 nM.

Consider “AGGCGGACAUCUAAUACUCACAUGAGGAUCACCCAUGUUUGACCAAAUAUACAGGCCGGUUUGCUUAGUCUUACUUG [Eternabot (L2) Solution 43] (Eterna round: R97, puzzle: Sensor, turn-off variant 1)”, for which the “apparent KD of MS2 coat protein” value is 40.8 nM (input ligand: FMN 200 uM) and 49.2 nM (input ligand: none).

For the sequence “AGGGACGUAGGAUAUACCGUGUAGUACAUGAGGAUCACCCAUGUUUGCCUCAUAGUCCACGUAGAAGGAUGUGACA [Eternabot (L2) Solution 37] (Eterna round: R97, puzzle: Exclusion 5)”, the “apparent KD of MS2 coat protein” value reads like this: (input ligand: FMN 200 uM) 70.9 nM; (input ligand: none) 64.1 nM.

For “AGGGAUAAAGGAUAUACAUGAGGAUCACCCAUGUUGAGGAAGGUUAGAGGUGGCGAUAGUAGAAGGUUAGGUAG [JR_Exclu3_Sub081] (puzzle: Exclusion 3)”, the “apparent KD of MS2 coat protein” value under setting [2] is 77 nM.

Take “AGGGCGGGAGGAUAUCCAAUAUAUGACAUGAGGAUCACCCAUGUUUCCACUCGUACCUCCGGAGAAGGCCCGCCGA [Ex5 #25] (Eterna round: R97, puzzle: Exclusion 5)”: the “apparent KD of MS2 coat protein” value reads like this: (input ligand: FMN 200 uM) 21.2 nM; (input ligand: none) 21.5 nM.

Regarding “AGGGCUGCUCAGGAUAUCCGUAAAAGCCGAGAAGGAGAAGGGAGCACAUGAGGAUCACCCAUGUGAUCCGAAAA [Verila] (puzzle: Exclusion 6)”, the “apparent KD of MS2 coat protein” value under setting [2] is 19.7 nM.

With “AGGUAGUCAGGAUAUUAAGAGUAGCGGGAUAACGCUACGAGUGAGAAGGGACAUGAGGAUCACCCAUGUUUUAA [JR_Ex4_Sub071] (Eterna round: R97, puzzle: Exclusion 4)”, the “apparent KD of MS2 coat protein” value was 23.4 nM (input ligand: FMN 200 uM) and 23.2 nM (input ligand: none).

Take “AGGUCCUUCUGGACACAUGAGGAUCACCCAUGUGAGGUCAGCGAGGAUAUCGGUCUAUAAUGUGACGAGAAGGCGCGGACCGAU [Ex NG3 #59] (Eterna round: R96, puzzle: Exclusion NG 3)”: the “apparent KD of MS2 coat protein” value is 16.8 nM (input ligand: FMN 200 uM); 11.3 nM (input ligand: microRNA oligo, concentration not stated); 16.4 nM (input ligand: none).

For “AGGUGACUGGUGAGGAUAUCGUGUUCGAAAGAACGUGAGAAGGCACAUGAGGAUCACCCAUGUGAUCCUCAUCG [Omei Ex4B A30] (Eterna round: R97, puzzle: Brourd's mod of Exclusion 4)”, the “apparent KD of MS2 coat protein” value came out at 101 nM (input ligand: FMN 200 uM) and 27 nM (input ligand: none).

Consider “AGGUGUAGAGGAUAUACAGUGUAUUACAUGAGGAUCACCCAUGUCCUUCAAUGGGUAUCAGUAGAAGGCUACACCA [Omei Ex5 C1] (Eterna round: R97, puzzle: Exclusion 5)”, for which the “apparent KD of MS2 coat protein” value (input ligand: FMN 200 uM) came out at 1060 nM and the “apparent KD of MS2 coat protein” value (input ligand: none) was determined as 485 nM.

For “AGGUGUAGAGGAUAUCCAUCCUCCCACAUGAGGAUCACCCAUGUCCUGGUCACCAAGGACGGAGAAGGCUACACCA [Omei Ex5 D21] (Eterna round: R97, puzzle: Exclusion 5)”, the “apparent KD of MS2 coat protein” value runs as follows: (input ligand: FMN 200 uM) 108 nM; (input ligand: none) 142 nM.

As for “AGGUGUAGAGGAUAUCGAGUUCUUUACAUGAGGAUCACCCAUGUCCUGGGCACCCAGGACCGAGAAGGCUACACCA [Omei Ex5 D29] (Eterna round: R97, puzzle: Exclusion 5)”, the “apparent KD of MS2 coat protein” value runs as follows: (input ligand: FMN 200 uM) 50.3 nM; (input ligand: none) 32.8 nM.

For the sequence “AGGUGUAGAGGAUAUCUAUACUCCCACAUGAGGAUCACCCAUGUCCUGGUCACCAAGGACGGAGAAGGCUACACCA [Omei Ex5 D22] (Eterna round: R97, puzzle: Exclusion 5)”, the “apparent KD of MS2 coat protein” value was 130 nM (input ligand: FMN 200 uM) and 68.3 nM (input ligand: none).

On to “AGGUGUAGAGGAUAUCUCUUCUCUCACAUGAGGAUCACCCAUGUCCUAAAGUCCAAGGAGAGAGAAGGCUACACCA [Omei Ex5 D4] (Eterna round: R97, puzzle: Exclusion 5)”, for which the “apparent KD of MS2 coat protein” value (input ligand: FMN 200 uM) was determined as 107 nM and the “apparent KD of MS2 coat protein” value (input ligand: none) was 110 nM.

On to “AGGUGUGAAGGAUAUAGCGUGGUCGACAUGAGGAUCACCCAUGUGAGAUGGUCGCCGGGUCUAGAAGGUUAGCUAA [Eternabot (L1) Solution 97] (Eterna round: R97, puzzle: Exclusion 5)”, for which the “apparent KD of MS2 coat protein” value is, setting by setting: (input ligand: FMN 200 uM) 82.5 nM; (input ligand: none) 97.2 nM.

As for “AGGUUGUGAGGAUAUUAGUUAUAUGUUUGGAGGUGUAUGGCUGAGAAGGCACAUGAGGAUCACCCAUGUAGAUC [JR_Ex4_Sub049] (Eterna round: R97, puzzle: Exclusion 4)”, the “apparent KD of MS2 coat protein” value by setting is: (input ligand: FMN 200 uM) 301 nM; (input ligand: none) 175 nM.

In the case of “AGUAACCGUCACGAAAGUGAUGGUUACGCAAGCAAAUGUACAUGAGGAUCACCCAUGUCCUCAUUUGCUCGUCUUAU [Sensor 3 - 43] (puzzle: Sensor v3, turn-off variant 2)”, the “apparent KD of MS2 coat protein” value runs as follows: under setting [1], 19.6 nM; under setting [2], 362 nM; under setting [3], 17.7 nM.

With “AGUAACCGUCACGAAAGUGAUGGUUACGCAAGCAAUGAAACAUGAGGAUCACCCAUGUCCUCAUUUGCUCGUCUUAU [Sensor 3 - 41] (puzzle: Sensor v3, turn-off variant 2)”, the “apparent KD of MS2 coat protein” value was 24.6 nM under setting [1], 347 nM under setting [2] and 25.7 nM under setting [3].
